Data taken from US20050075291.

Target: reconstituted tissue factor (Innovin, Dade) (UniProt P13726)
UniProt P13726, sequence (P13726 33-295): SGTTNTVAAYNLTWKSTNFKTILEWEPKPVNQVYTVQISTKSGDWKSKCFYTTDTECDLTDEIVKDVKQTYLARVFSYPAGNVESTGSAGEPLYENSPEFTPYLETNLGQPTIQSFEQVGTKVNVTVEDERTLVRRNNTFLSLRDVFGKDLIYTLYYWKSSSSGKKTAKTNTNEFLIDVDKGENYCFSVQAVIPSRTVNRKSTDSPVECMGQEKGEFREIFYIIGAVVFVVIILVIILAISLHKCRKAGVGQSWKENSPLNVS

Row | Substance | competition with active-site modified VIIa (0-3.2 nM), clotting time | competition assay (clotting time as a function of added FFR-VIIa, 0 to 3.5 nM)
1 | factor VII with leucine for phenylalanine at position 5 (which contained the Q11E33 mutations) | had much lower activity than the Q11E33 mutant | 
2 | Human factor VIIa-T9Q11E33 |  | Human factor VIIa-T9Q11E33 exhibited a severe loss of competitive binding affinity
